± gives the uncertainty stated by the source.
assay: abundance fitness (aPCA) (normalised: wild type 0, dead -1); higher = more abundant; growth selection in yeast, the domain comes from the species named; conditions: Homo sapiens

Row | Substance | abundance fitness
1 | SAFB-like transcription modulator I41R, Q9NWH9 | -0.202 ± 0.066
2 | SAFB-like transcription modulator I41S, Q9NWH9 | -0.01 ± 0.042
3 | SAFB-like transcription modulator I41T, Q9NWH9 | -0.337 ± 0.079
4 | SAFB-like transcription modulator I41V, Q9NWH9 | -0.067 ± 0.063
5 | SAFB-like transcription modulator I41W, Q9NWH9 | -0.195 ± 0.092
6 | SAFB-like transcription modulator I41Y, Q9NWH9 | -0.172 ± 0.11
7 | SAFB-like transcription modulator I49A, Q9NWH9 | 0 ± 0.063
8 | SAFB-like transcription modulator I49C, Q9NWH9 | -0.138 ± 0.056
9 | SAFB-like transcription modulator I49D, Q9NWH9 | -0.154 ± 0.11
10 | SAFB-like transcription modulator I49E, Q9NWH9 | -0.056 ± 0.071
11 | SAFB-like transcription modulator I49G, Q9NWH9 | -0.406 ± 0.049
12 | SAFB-like transcription modulator I49H, Q9NWH9 | -0.29 ± 0.1
13 | SAFB-like transcription modulator I49K, Q9NWH9 | -0.401 ± 0.078
14 | SAFB-like transcription modulator I49L, Q9NWH9 | -0.075 ± 0.045
15 | SAFB-like transcription modulator I49M, Q9NWH9 | 0.03 ± 0.057
16 | SAFB-like transcription modulator I49N, Q9NWH9 | -0.518 ± 0.073
17 | SAFB-like transcription modulator I49P, Q9NWH9 | -0.739 ± 0.067
18 | SAFB-like transcription modulator I49Q, Q9NWH9 | -0.068 ± 0.05
19 | SAFB-like transcription modulator I49R, Q9NWH9 | -0.148 ± 0.054
20 | SAFB-like transcription modulator I49S, Q9NWH9 | -0.168 ± 0.05
21 | SAFB-like transcription modulator I49T, Q9NWH9 | -0.223 ± 0.072
22 | SAFB-like transcription modulator I49V, Q9NWH9 | -0.079 ± 0.048
23 | SAFB-like transcription modulator I49W, Q9NWH9 | -0.449 ± 0.041
24 | SAFB-like transcription modulator I49Y, Q9NWH9 | -0.076 ± 0.089
25 | SAFB-like transcription modulator I56A, Q9NWH9 | -0.829 ± 0.1
26 | SAFB-like transcription modulator I56C, Q9NWH9 | -0.18 ± 0.083

Row | Substance | abundance fitness
27 | SAFB-like transcription modulator I56D, Q9NWH9 | -0.286 ± 0.3
28 | SAFB-like transcription modulator I56E, Q9NWH9 | -0.597 ± 0.089
29 | SAFB-like transcription modulator I56F, Q9NWH9 | -0.898 ± 0.21
30 | SAFB-like transcription modulator I56G, Q9NWH9 | -0.916 ± 0.072
31 | SAFB-like transcription modulator I56H, Q9NWH9 | -0.797 ± 0.19
32 | SAFB-like transcription modulator I56L, Q9NWH9 | 0.002 ± 0.068
33 | SAFB-like transcription modulator I56M, Q9NWH9 | -0.217 ± 0.05
34 | SAFB-like transcription modulator I56N, Q9NWH9 | -0.951 ± 0.25
35 | SAFB-like transcription modulator I56P, Q9NWH9 | -0.457 ± 0.05
36 | SAFB-like transcription modulator I56R, Q9NWH9 | -0.485 ± 0.07
37 | SAFB-like transcription modulator I56S, Q9NWH9 | -0.678 ± 0.082
38 | SAFB-like transcription modulator I56W, Q9NWH9 | -0.561 ± 0.069
39 | SAFB-like transcription modulator I56Y, Q9NWH9 | -0.419 ± 0.16
40 | SAFB-like transcription modulator I66A, Q9NWH9 | -0.552 ± 0.15
41 | SAFB-like transcription modulator I66C, Q9NWH9 | 0.196 ± 0.11
42 | SAFB-like transcription modulator I66E, Q9NWH9 | -0.272 ± 0.061
43 | SAFB-like transcription modulator I66F, Q9NWH9 | -0.396 ± 0.15
44 | SAFB-like transcription modulator I66G, Q9NWH9 | -0.517 ± 0.085
45 | SAFB-like transcription modulator I66H, Q9NWH9 | -0.226 ± 0.12
46 | SAFB-like transcription modulator I66L, Q9NWH9 | -0.268 ± 0.094
47 | SAFB-like transcription modulator I66M, Q9NWH9 | -0.316 ± 0.14
48 | SAFB-like transcription modulator I66N, Q9NWH9 | -0.432 ± 0.18
49 | SAFB-like transcription modulator I66P, Q9NWH9 | -0.274 ± 0.1
50 | SAFB-like transcription modulator I66Q, Q9NWH9 | -0.004 ± 0.11
51 | SAFB-like transcription modulator I66R, Q9NWH9 | -0.443 ± 0.061
52 | SAFB-like transcription modulator I66S, Q9NWH9 | -0.259 ± 0.083

Row | Substance | abundance fitness
53 | SAFB-like transcription modulator I66T, Q9NWH9 | -0.063 ± 0.12
54 | SAFB-like transcription modulator I66V, Q9NWH9 | -0.036 ± 0.084
55 | SAFB-like transcription modulator I66W, Q9NWH9 | -0.451 ± 0.18
56 | SAFB-like transcription modulator I66Y, Q9NWH9 | 0.007 ± 0.16
57 | SAFB-like transcription modulator K20A, Q9NWH9 | -0.284 ± 0.039
58 | SAFB-like transcription modulator K20C, Q9NWH9 | -0.115 ± 0.043
59 | SAFB-like transcription modulator K20D, Q9NWH9 | -0.413 ± 0.11
60 | SAFB-like transcription modulator K20E, Q9NWH9 | -0.354 ± 0.13
61 | SAFB-like transcription modulator K20F, Q9NWH9 | -0.366 ± 0.16
62 | SAFB-like transcription modulator K20G, Q9NWH9 | -0.638 ± 0.082
63 | SAFB-like transcription modulator K20H, Q9NWH9 | 0.005 ± 0.12
64 | SAFB-like transcription modulator K20I, Q9NWH9 | 0.049 ± 0.11
65 | SAFB-like transcription modulator K20L, Q9NWH9 | -0.21 ± 0.078
66 | SAFB-like transcription modulator K20M, Q9NWH9 | -0.035 ± 0.075
67 | SAFB-like transcription modulator K20N, Q9NWH9 | -0.333 ± 0.17
68 | SAFB-like transcription modulator K20Q, Q9NWH9 | -0.193 ± 0.091
69 | SAFB-like transcription modulator K20S, Q9NWH9 | -0.244 ± 0.036
70 | SAFB-like transcription modulator K20T, Q9NWH9 | -0.212 ± 0.053
71 | SAFB-like transcription modulator K20V, Q9NWH9 | -0.252 ± 0.072
72 | SAFB-like transcription modulator K20W, Q9NWH9 | -0.284 ± 0.095
73 | SAFB-like transcription modulator K20Y, Q9NWH9 | -0.454 ± 0.3
74 | SAFB-like transcription modulator K21A, Q9NWH9 | -0.182 ± 0.033
75 | SAFB-like transcription modulator K21C, Q9NWH9 | -0.203 ± 0.058
76 | SAFB-like transcription modulator K21E, Q9NWH9 | -0.195 ± 0.064
77 | SAFB-like transcription modulator K21F, Q9NWH9 | -0.349 ± 0.077
78 | SAFB-like transcription modulator K21G, Q9NWH9 | -0.265 ± 0.046

Row | Substance | abundance fitness
79 | SAFB-like transcription modulator K21H, Q9NWH9 | -0.33 ± 0.091
80 | SAFB-like transcription modulator K21L, Q9NWH9 | -0.324 ± 0.041
81 | SAFB-like transcription modulator K21N, Q9NWH9 | -0.491 ± 0.094
82 | SAFB-like transcription modulator K21P, Q9NWH9 | -0.312 ± 0.057
83 | SAFB-like transcription modulator K21Q, Q9NWH9 | -0.336 ± 0.052
84 | SAFB-like transcription modulator K21S, Q9NWH9 | -0.198 ± 0.056
85 | SAFB-like transcription modulator K21T, Q9NWH9 | -0.355 ± 0.064
86 | SAFB-like transcription modulator K21V, Q9NWH9 | -0.375 ± 0.04
87 | SAFB-like transcription modulator K21W, Q9NWH9 | -0.982 ± 0.12
88 | SAFB-like transcription modulator K21Y, Q9NWH9 | -0.667 ± 0.076
89 | SAFB-like transcription modulator K31A, Q9NWH9 | -0.352 ± 0.049
90 | SAFB-like transcription modulator K31C, Q9NWH9 | -0.223 ± 0.06
91 | SAFB-like transcription modulator K31E, Q9NWH9 | -0.219 ± 0.062
92 | SAFB-like transcription modulator K31F, Q9NWH9 | -0.288 ± 0.037
93 | SAFB-like transcription modulator K31G, Q9NWH9 | -0.859 ± 0.038
94 | SAFB-like transcription modulator K31H, Q9NWH9 | -0.102 ± 0.083
95 | SAFB-like transcription modulator K31I, Q9NWH9 | 0.131 ± 0.064
96 | SAFB-like transcription modulator K31L, Q9NWH9 | -0.155 ± 0.042
97 | SAFB-like transcription modulator K31M, Q9NWH9 | -0.241 ± 0.068
98 | SAFB-like transcription modulator K31N, Q9NWH9 | -0.629 ± 0.075
99 | SAFB-like transcription modulator K31P, Q9NWH9 | -1.16 ± 0.075
100 | SAFB-like transcription modulator K31Q, Q9NWH9 | -0.069 ± 0.075
101 | SAFB-like transcription modulator K31R, Q9NWH9 | -0.184 ± 0.047
102 | SAFB-like transcription modulator K31S, Q9NWH9 | -0.613 ± 0.061
103 | SAFB-like transcription modulator K31T, Q9NWH9 | -0.143 ± 0.043

Source: the Human Domainome abundance scans (Beltran et al. 2025)
